Results reported in the DeepSol protein solubility set.

Assay: soluble on expression in E. coli; label from the status in PepcDB or PDB records

Sequence | soluble on expression in E. coli
MTADANKSESLLCMDKAREAIKSGDTDKARRMLLKAKKLDPGQNIEFLTKKIDDMTNNTSSSSQTSSSRASEERSYAHDDHYDDPNLRNRKARSPVKKNGKTEPEPKQRSASRTPKLGVDYTSEQKELVERIRHCKDYYEILKIDKKASDDDIRKEYRKLALKLHPDKCRAPHATEAFKALGNAYAVLSDTDK | not soluble
MTAHPPRPELQIDIVSDVVCPWCIVGFRQLDQALAATGVLARLRWHPFELNPQMGPEGQNLREHIMEKYGSTPEQSAEARARLTAIGAELGFTFNFTDDSRIVNTFAAHQLLDWAEGQGRQHPLKQALFAAYFTDGRDVSDLSVLLDAVEAAGLDREAAQTALTSGAHQAPVREKQKFWAQHGISGVPSMVFGGKYLLTGAQGADTYAQVIQRCLAEAA | not soluble
MTAILLHNVAKSYRSYDHPWETLWEVFTKTRRHREWTALHPLSLEIAHGEVVGIVGTNGAGKSTLLKLIAGTLTPSAGDIRVNGHVAALLELGAGFHPDMTGRENVYLGASVMGLSSERVDRLYDGIVEFAGLGEFMDQPVKTYSSGMYMRLAFAVATAADPDVLILDEALSVGDGAFARKSFERIIGYKDAGKTILFCSHSLYQVEAICSRVLWLDHGRLVMDGEPARVVSAYAEFLGGGGEGCGTPDQPAPAAVAGSGVGRLTKVEVEADGVEGRKLTVRSGQTDLTVAVGFASDPALPPPSVGLTITGSNGWAVTSASTSNDGLTISRRPDGSGEVELSFPRFPLLKGAYWVNVFLLCEQGIHLYDRIEHAAELEVVQDGLEQGVVSLPRRWSVNGAPASAVSPTVPTVAAWLEHHHHHH | not soluble
MTAKPTVFVVDDDMSVREGLRNLLRSAGFEVETFDCASTFLEHRRPEQHGCLVLDMRMPGMSGIELQEQLTAISDGIPIVFITAHGDIPMTVRAMKAGAIEFLPKPFEEQALLDAIEQGLQLNAERRQARETQDQLEQLFSSLTGREQQVLQLTIRGLMNKQIAGELGIAEVTVKVHRHNIMQKLNVRSLANLVHLVEKYESFERGVS | soluble
MTAQKMSAQEIIAFIGNAEKKTNVKVTFEGELATAVPSSVTKLGNVLFGDWKDIEPLLANLTENKDYVVEQDGRNSAVPLLDK | not soluble
MTARDFLEFRERLAPASGFQSAQLREIEILLGLEDTQRISIGNGCSYRDALKLPGGAPSSSAQRVEARAADGPSFKHCLYDWLSRVPIDGSNAPADITRFLEAYLASLRAENDRRLKLASSGLAAAEIEQLRARYAAEDAGAQAFLLAEDDPQASDAERETRRAGRAAMLFIESYRELPQLAWPHALLESVLELEQAMLIWRQRHARMVERFIGRRIGTGGSSGVDYLDQTARYRIFTELWTVRSLLLRKAAVPQIRSSAGYGFVMEGFALEHHHHHH | not soluble
MTARIYKPAKNAMQSGTAKTREWQLDYEPETPRTIEPLMGWTSSSDMQQQVSLRFHTRDEAVAYCEREGIPYQLIEPKEPVRRRAAYADNFAFRRPEPWTHLEHHHHHH | not soluble
MTARPDTAIVLAAGLGKRMRPITDTIPKPLVRIAGKTLLDWGLDSLAAAGVAKAVVNVHYLPEQIVAHVAARSAPRIVISDESDRLLDSAGGIVKALPELGEQPFYILNADTFWIDHGPLNLGRLALAWDAAKMDILLMLADLHQATGHCGSTDFLVAPDGALRRSKGDPAGLIYAGAAIIHPRLFKDASAEPHSLNAYFDKAIAAGRLFGMPMHGHWITVGTPDAIPLAEEAVAGALAEMQLEHHHHHH | not soluble
MTDEAFAQADPEWLALIRAAREWLSGPLGQLLLEEERRVLDEELGRYFGGYLVHYGPSAQNPPVAPQVQRNVRLGAPLPGVEIVCEEQAWPLSEHAADVVVLQHGLDFCLSPHGLLREAASSVRPGGHLLIIGINPWSAWGVRHVFARDALRKARCISSSRVADWLNLLGFALEKRRFGCYRPPLASAAWQSRLAGLESLGEGRQSPGGGFYLLVARKLVVGLRPLRQVRRDPIGKLIPMPMAKVSRNTQDCS | not soluble
